Reference: PMC9233703

What was measured:
[1] = target: bovine brain tubulin polymerized into the microtubule lattice (bovine) (UniProt Q6B856); experiment: motor-pulling assay (TIRF microscopy); taxol-stabilized microtubules, 10 μM taxol, held by digoxigenin-labeled tubulin; 3.8 kb biotinylated DNA linker; 6 nM biotinylated kinesin-1; 1 mM ATP, 28 °C
[2] = target: bovine brain tubulin polymerized into the microtubule lattice (bovine) (UniProt Q6B856); experiment: optical tweezer force spectroscopy; taxol-stabilized microtubules copolymerized with biotinylated tubulin, affixed to neutravidin-coated coverslip; single tubulin pulled by its α-tubulin CTT through an 8.2 kb DNA linker and an anti-digoxigenin bead, perpendicular to the microtubule axis; constant pulling velocity 0.32 μm/s; BRB80, 10 μM taxol
[3] = target: bovine brain tubulin polymerized into the microtubule lattice (bovine) (UniProt Q6B856); experiment: motor-pulling assay (TIRF microscopy); GDP-microtubules with GMPCPP-tubulin caps held on the surface by anti-digoxigenin antibody; tubulin with 3.8 kb biotinylated DNA linker pulled along the microtubule axis by biotinylated kinesin-1 (0.5-9 nM) joined via neutravidin; 1 mM ATP, SYTOX Green, 28 °C

bovine brain tubulin labeled with an oligo-DNA handle on the α-tubulin C-terminal tail (SSL method), hybridized to a long DNA linker (from UniProt Q6B856 1-445) (complex)
median rupture time under pulling by kinesin-1 (6 nM) [1]: 18 s | force typically required to remove tubulin from the lattice [2]: 30 pN | lifetime in the lattice at zero force estimated from the rupture force histogram (Dudko method, single-step extraction) [2]: 40 s | rupture force [2]: 33.8 pN | decay time of the rupture-time histogram (4.5-9 nM biotinylated kinesin) [3]: 8.8 s | median rupture time under pulling by kinesin-1 (plateau at high kinesin concentration) [3]: 8 s | percentage of DNA remained on the microtubules after 5 min with 6 nM biotinylated kinesin-1 [3]: 59%
